The results in this text go back to US20240189392A1.

The target of the assay is human RXFP2 (human), Q8WXD0. In words: cell-based or functional assay.

Positions of bridges follow the written chain, without caps; N, C: chain ends. Chains are numbered I, II in the order given. No end group written: not given here.

Chain of human RXFP2 (human), Q8WXD0 (Q8WXD0 whole entry): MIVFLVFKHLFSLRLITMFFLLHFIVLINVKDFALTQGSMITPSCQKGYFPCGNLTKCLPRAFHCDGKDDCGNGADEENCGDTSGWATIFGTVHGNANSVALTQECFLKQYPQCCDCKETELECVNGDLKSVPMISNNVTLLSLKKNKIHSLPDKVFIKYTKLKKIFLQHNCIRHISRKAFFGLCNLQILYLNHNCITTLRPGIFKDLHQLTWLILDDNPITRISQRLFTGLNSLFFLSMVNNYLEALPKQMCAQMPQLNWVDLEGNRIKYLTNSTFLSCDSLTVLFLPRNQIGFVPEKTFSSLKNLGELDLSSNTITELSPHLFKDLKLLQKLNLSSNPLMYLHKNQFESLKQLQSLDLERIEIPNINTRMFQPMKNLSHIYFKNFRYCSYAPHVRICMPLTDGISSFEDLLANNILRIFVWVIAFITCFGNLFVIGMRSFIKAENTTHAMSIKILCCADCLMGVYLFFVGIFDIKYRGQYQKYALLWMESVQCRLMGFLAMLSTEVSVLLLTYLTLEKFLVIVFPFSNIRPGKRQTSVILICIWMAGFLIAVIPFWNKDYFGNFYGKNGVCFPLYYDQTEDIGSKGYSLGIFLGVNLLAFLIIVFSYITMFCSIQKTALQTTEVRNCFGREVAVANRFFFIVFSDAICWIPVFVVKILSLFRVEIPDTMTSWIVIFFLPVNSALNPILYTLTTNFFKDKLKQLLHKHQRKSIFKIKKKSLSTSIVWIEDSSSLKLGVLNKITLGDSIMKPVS

B1: wild-type relaxin (human relaxin 2) (ligand)
chain 1: QLYSALANKCCHVGCTKRSLARFC
chain 2: DSWMEEVIKLCGRELVRAQIAICGMSTWS
modifications: disulfide I:10-I:15, I:11-II:11, I:24-II:23
Turning to B1, the fold less potent than INSL3, cAMP assay, human RXFP2/CHO-K1 cells is 10 fold.

B2: RLX-A-AQ1-20KPEG (ligand)
chain 1: XLYSALANKCCHVGCTKRSLARFC
chain 2: ASWMEEVIKLCGRELVRAQIAICGMSTWS
modifications: here or on the partner: pACF (para-acetylphenylalanine) at position 1 of the A chain, linked to a 20 kDA PEG via an oxime linkage
With B2, the Maximal cAMP stimulation by RLX-A-AQ1-20KPEG compared to WT-RLX (percent difference), AVG, hRXFP2 worked out at 99%; the Potency Ratio (RLX-A-AQ1-20KPEG/WT-RLX), cAMP assay, human RXFP2/CHO-K1 cells came out at 32 fold; the RLX-A-AQ1-20KPEG Potency Ratio (hRXFP 1-1.0), cAMP assay was found to be 54; the cAMP Assay EC50 (nM), human RXFP2/CHO-K1 cells was determined as 174 nM.
